Literature values as cited in paper PMC6620384.

Target: UNC5B-Fc (UniProt Q8IZJ1)
Assay: SPR

Sequence of UniProt Q8IZJ1 (Q8IZJ1 27-377): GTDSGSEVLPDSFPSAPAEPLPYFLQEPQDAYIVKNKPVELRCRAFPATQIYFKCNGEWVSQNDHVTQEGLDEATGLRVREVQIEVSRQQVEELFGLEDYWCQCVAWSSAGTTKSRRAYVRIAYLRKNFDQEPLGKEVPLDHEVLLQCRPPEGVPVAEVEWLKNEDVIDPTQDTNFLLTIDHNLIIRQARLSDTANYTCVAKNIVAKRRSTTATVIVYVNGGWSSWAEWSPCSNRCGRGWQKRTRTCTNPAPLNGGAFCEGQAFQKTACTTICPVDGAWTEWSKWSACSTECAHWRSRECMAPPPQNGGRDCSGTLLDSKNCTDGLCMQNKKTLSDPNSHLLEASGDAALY

- Kd: 12 nM
Substance: Robo4-Fc (from UniProt Q8WZ75)
